Experimental data taken from patent US20200055914A1.

Legend:
[1] = molecular target: lectin-purified insulin receptor (isoform B) (UniProt P06213); assay: receptor-binding assay with lectin-purified insulin receptor
[2] = size-exclusion chromatography, zinc- and phenol-free (self-association control)

Trp^B26, Orn^B29 insulin analogue (ligand)
affinity relative to human insulin [1]: 50%

Lys^B28, Pro^B29 (Lispro) insulin
molecular weight by SEC [2]: The molecular weight (MW; or molecular mass) of the species was 3.1 kDa
